In article PMC3888415:
Like-named read-outs stand apart in the source and are kept apart here.

Tests used:
human α-thrombin (human) [1] = assay: discontinuous thrombin inhibition assay (second order rate constant k2); pseudo first order conditions; purified API proteins and thrombin; mean ± SD of 5 determinations
human α-thrombin (human) [2] = assay: ELISA; thrombin capture assay: thrombin (5 µg/ml) coated on microtiter wells in PBS; cleared bacterial lysates applied neat for one hour; detected with HRP-conjugated sheep anti-human API; OD 450 nm, for P7–P3 variants normalized to API M358R lysate
human α-thrombin (human) [3] = assay: as above; remark: listed apart in the source

k2 (second order rate constant of thrombin inhibition) (mol^−1 sec^−1) (human α-thrombin (human) [1])	relative OD450 versus API M358R (human α-thrombin (human) [2])	relative OD450 versus API M358R (human α-thrombin (human) [3])	Substance
–	1.59	–	API M358R P7–P3 variant DAFAA (from UniProt P01009 25-418)
1e+06	1.64	1.7	API M358R P7–P3 variant DITMA (from UniProt P01009 25-418)
529000	–	–	API M358R P7–P3 variant DLTVS (plaque consensus) (from UniProt P01009 25-418)
–	1.51	–	API M358R P7–P3 variant EAHFR (from UniProt P01009 25-418)
–	2.13	–	API M358R P7–P3 variant FHTLG (from UniProt P01009 25-418)
504000	1.99	–	API M358R P7–P3 variant HATVS (from UniProt P01009 25-418)
–	1.46	–	API M358R P7–P3 variant ISSAN (from UniProt P01009 25-418)
–	1.45	–	API M358R P7–P3 variant LAITS (from UniProt P01009 25-418)
895000	1.89	–	API M358R P7–P3 variant LASMR (from UniProt P01009 25-418)
765000	–	1.5	API M358R P7–P3 variant LATVS (lysate consensus) (from UniProt P01009 25-418)
786000	–	2.1	API M358R P7–P3 variant LHTLG (from UniProt P01009 25-418)
176000	–	–	API M358R P7–P3 variant NLIPT (from UniProt P01009 25-418)
–	1.37	–	API M358R P7–P3 variant QVKPA (from UniProt P01009 25-418)
–	1.49	–	API M358R P7–P3 variant TVSVS (from UniProt P01009 25-418)
487000	–	–	recombinant hexahistidine-tagged API M358R (from UniProt P01009 25-418) (natural protein)

Continued, substance first:

Substance	k2 (second order rate constant of thrombin inhibition) (mol^−1 sec^−1) (human α-thrombin (human) [1])	relative OD450 versus API M358R (human α-thrombin (human) [2])	relative OD450 versus API M358R (human α-thrombin (human) [3])
API M358R P7–P3 variant AAFVS (from UniProt P01009 25-418)	1.01e+06	3.01	–
API M358R P7–P3 variant DVTVS (from UniProt P01009 25-418)	–	1.42	–
API M358R P7–P3 variant EATVS (from UniProt P01009 25-418)	617000	1.54	–
API M358R P7–P3 variant EISLQ (from UniProt P01009 25-418)	783000	2.61	–
API M358R P7–P3 variant LINPI (from UniProt P01009 25-418)	–	1.54	–
API M358R P7–P3 variant LSELA (from UniProt P01009 25-418)	–	1.28	–
API M358R P7–P3 variant LTTLR (from UniProt P01009 25-418)	896000	2.09	–
API M358R P7–P3 variant QATFL (from UniProt P01009 25-418)	593000	1.91	–
API M358R P7–P3 variant TLSAV (from UniProt P01009 25-418)	–	1.36	–
API M358R P7–P3 variant VTTIT (from UniProt P01009 25-418)	–	1.9	–
